Experimental data: PMC8605023 (2021)

What was measured:
Assay in all cases: FP
SARS-CoV E 1-16 = target: SARS-CoV E 1-16
[1] = target: SARS-CoV-2 NSP3 2019-2038
SARS-CoV NSP3 2019-2038 = target: SARS-CoV NSP3 2019-2038
SARS-CoV-2 E 1-16 = target: SARS-CoV-2 E 1-16
[2] = target: MERS-CoV NSP14 peptide with the YxxL motif, synthetic (MERS-CoV, UniProt K9N7C7)
[3] = target: SARS-CoV NSP14 peptide with the YxxL motif, synthetic (SARS-CoV, UniProt P0C6X7)
[4] = target: SARS-CoV-2 NSP14 peptide with the YxxL motif, synthetic (SARS-CoV-2, UniProt P0DTD1)
NTF2 domain of G3BP1 = NTF2 domain of G3BP1 (human, UniProt Q13283 11-133)
NTF2 domain of G3BP2 = target: T1, NTF2 domain of G3BP2 (human, UniProt Q9UN86 11-133)
T1 chain: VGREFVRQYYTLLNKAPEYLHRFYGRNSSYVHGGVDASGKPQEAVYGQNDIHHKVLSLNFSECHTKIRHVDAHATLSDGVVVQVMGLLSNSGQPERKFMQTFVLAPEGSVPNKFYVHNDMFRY

Chain of NTF2 domain of G3BP1 (Q13283 11-133): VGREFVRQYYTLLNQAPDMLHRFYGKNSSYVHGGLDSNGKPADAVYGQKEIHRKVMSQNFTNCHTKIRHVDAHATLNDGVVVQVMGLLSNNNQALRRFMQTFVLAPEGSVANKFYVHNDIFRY

B1: FERM domain of Radixin (domain or fragment)
chain: INVRVTTMDAELEFAIQPNTTGKQLFDQVVKTVGLREVWFFGLQYVDSKGYSTWLKLNKKVTQQDVKKENPLQFKFRAKFFPEDVSEELIQEITQRLFFLQVKEAILNDEIYCPPETAVLLASYAVQAKYGDYNKEIHKPGYLANDRLLPQRVLEQHKLTKEQWEERIQNWHEEHRGMLREDSMMEYLKIAQDLEMYGVNYFEIKNKKGTELWLGVDALGLNIYEHDDKLTPKIGFPWSEIRNISFNDKKFVIKPIDKKAPDFVFYAPRLRINKRILALCMGNHELYMRRR
SARS-CoV E 1-16
  Kd: 11.9 µM
[1]
  Kd: 38 µM
SARS-CoV NSP3 2019-2038
  Kd: 217 µM
SARS-CoV-2 E 1-16
  Kd: 11.9 µM

B2: clathrin coat adaptor protein AP2M1, tag removed (domain or fragment)
chain: RNELFLDVLESVNLLMSPQGQVLSAHVSGRVVMKSYLSGMPECKFGMNDKIVIEKQGKGTADETSKSGKQSIAIDDCTFHQCVRLSKFDSERSISFIPPDGEFELMRYRTTKDIILPFRVIPLVREVGRTKLEVKVVIKSNFKPSLLAQKIEVRIPTPLNTSGVQVICMKGKAKYKASENAIVWKIKRMAGMKESQISAEIELLPTNDKKKWARPPISMNFEVPFAPSGLKVRYLKVFEPKLNYSDHDVIKWVRYIGRSGIYETR
[2]
  Kd: 3 µM
[3]
  Kd: 1.6 µM
[4]
  Kd: 1.6 µM

B3: MERS-CoV N peptide corresponding to the ΦxFG peptide, synthetic (peptide)
chain: APRAVSFADNNDITNT
NTF2 domain of G3BP1
  Kd: 51 µM
NTF2 domain of G3BP2
  Kd: 26 µM

B4: SARS-CoV-2 N peptide with the ΦxFG motif, synthetic (peptide)
chain: APRITFGGPSDSTGSN
NTF2 domain of G3BP2
  Kd: 2.8 µM

B5: SARS-CoV N peptide with the ΦxFG motif, synthetic (peptide)
chain: APRITFGGPTDSTDNN
NTF2 domain of G3BP1
  Kd: 2.8 µM
NTF2 domain of G3BP2
  Kd: 1.7 µM
